Legend:
[1] = molecular target: PfHsp70-x C-terminal truncated version with a missing EEVN motif (Plasmodium falciparum); test: SPR; PfHsp70-x or PfHsp70-xT immobilised on ProteOn GLC chips as ligands; peptides as analytes at 1.25-20 nM, 50 uL/min; 25 °C; PBS-Tween; no nucleotide
[2] = molecular target: Plasmodium falciparum Hsp70-x (full length) (Plasmodium falciparum); test: as above
[3] = molecular target: PfHsp70‐x C‐terminal truncated version with a missing EEVN motif (Plasmodium falciparum); test: SPR; PfHsp70‐x or PfHsp70‐xT immobilised on ProteOn GLC chips, peptides as analytes at 1.25-20 nM, 25°C, PBS‐Tween pH 7.4, no nucleotide
[4] = molecular target: Plasmodium falciparum Hsp70‐x (full length) (Plasmodium falciparum); test: as above
[5] = molecular target: PfHsp70-x C-terminal truncated version with a missing EEVN motif (Plasmodium falciparum); test: SPR; PfHsp70-x or PfHsp70-xT immobilised on ProteOn GLC chips as ligands; peptides as analytes at 1.25-20 nM, 50 uL/min; 25 °C; PBS-Tween; with 2 mM ADP
[6] = molecular target: Plasmodium falciparum Hsp70-x (full length) (Plasmodium falciparum); test: as above
[7] = molecular target: Plasmodium falciparum Hsp70‐x (full length) (Plasmodium falciparum); test: SPR; PfHsp70‐x or PfHsp70‐xT immobilised on ProteOn GLC chips, peptides as analytes at 1.25-20 nM, 25°C, PBS‐Tween pH 7.4, with 2 mM ATP
[8] = molecular target: Plasmodium falciparum Hsp70-x (full length) (Plasmodium falciparum); test: SPR; PfHsp70-x or PfHsp70-xT immobilised on ProteOn GLC chips as ligands; peptides as analytes at 1.25-20 nM, 50 uL/min; 25 °C; PBS-Tween; with 2 mM ATP
[9] = molecular target: PfHsp70‐x C‐terminal truncated version with a missing EEVN motif (Plasmodium falciparum); test: SPR; PfHsp70‐x or PfHsp70‐xT immobilised on ProteOn GLC chips, peptides as analytes at 1.25-20 nM, 25°C, PBS‐Tween pH 7.4, with 2 mM ADP
[10] = molecular target: Plasmodium falciparum Hsp70‐x (full length) (Plasmodium falciparum); test: as above
[11] = molecular target: PfHsp70‐x C‐terminal truncated version with a missing EEVN motif (Plasmodium falciparum); test: SPR; PfHsp70‐x or PfHsp70‐xT immobilised on ProteOn GLC chips, peptides as analytes at 1.25-20 nM, 25°C, PBS‐Tween pH 7.4, with 2 mM ATP
[12] = molecular target: PfHsp70-x C-terminal truncated version with a missing EEVN motif (Plasmodium falciparum); test: SPR; PfHsp70-x or PfHsp70-xT immobilised on ProteOn GLC chips as ligands; peptides as analytes at 1.25-20 nM, 50 uL/min; 25 °C; PBS-Tween; with 2 mM ATP

Binder | koff [1] | koff [2] | Kd [3] | Kd [4] | koff [5] | koff [6] | Kd [7] | koff [8] | Kd [9] | Kd [10] | kon [2] | kon [6] | kon [8] | kon [1] | kon [5] | Kd [11] | koff [12] | kon [12]
ALLLMYRR [peptide ALLLMYRR] | 1.04e-05 s⁻¹ | 1.28e-06 s⁻¹ | 542000 nM | 1470 nM | 1.04e-05 s⁻¹ | 0.00282 s⁻¹ | 60600 nM | 1.6e-06 s⁻¹ | 313000 nM | 2820 nM | – | – | – | – | – | – | – | –
ANNNMYRR [peptide ANNNMYRR] | 1.04e-05 s⁻¹ | 0.000732 s⁻¹ | 626000 nM | 2.21 nM | 1.04e-05 s⁻¹ | 0.00386 s⁻¹ | 783 nM | 0.00567 s⁻¹ | 443000 nM | 2.21 nM | 331000 M⁻¹ s⁻¹ | 1.74e+06 M⁻¹ s⁻¹ | 7240 M⁻¹ s⁻¹ | – | – | – | – | –
NRNNTG [peptide NRNNTG] | 2.79e-08 s⁻¹ | 9.49e-07 s⁻¹ | 7.92 nM | 6.91 nM | 1.01e-08 s⁻¹ | 1.03e-07 s⁻¹ | 137 nM | 1.01e-06 s⁻¹ | 1.69 nM | 4.31 nM | 2.43 M⁻¹ s⁻¹ | 2.55 M⁻¹ s⁻¹ | 7.33 M⁻¹ s⁻¹ | 3.52 M⁻¹ s⁻¹ | 5.96 M⁻¹ s⁻¹ | 107 nM | 1.01e-05 s⁻¹ | 9.37 M⁻¹ s⁻¹
NRLLTG [peptide NRLLTG] | 8.67e-06 s⁻¹ | 9.97e-06 s⁻¹ | 280 nM | 250 nM | 1e-05 s⁻¹ | 1.01e-05 s⁻¹ | 1700 nM | 1.01e-05 s⁻¹ | 170 nM | 620 nM | 3.86 M⁻¹ s⁻¹ | 1.62 M⁻¹ s⁻¹ | 1.21 M⁻¹ s⁻¹ | 3.15 M⁻¹ s⁻¹ | 6 M⁻¹ s⁻¹ | 1800 nM | 0.000161 s⁻¹ | 31.8 M⁻¹ s⁻¹
